Measurements: paper PMC5650360, “Maslinic acid promotes autophagy by disrupting the interaction between Bcl2 and Beclin1 in rat pheochromocytoma PC12 cells” (Oncotarget, 2017)

Target: T1, rat Beclin1 BH3 domain and Coiled Coil domain (residues 100-266) (rat, UniProt Q91XJ1 100-266)
T1 construct: Beclin1, rat, BH3 domain and coiled coil domain, residues 100-266; Cloned in a modified pET32 vector with a human rhinovirus 3C protease site and without thioredoxin; source: E. coli BL21 (DE3), purified (HisTrap HP, 3C cleavage, Superdex 75)
T1 sequence (Q91XJ1 100-266): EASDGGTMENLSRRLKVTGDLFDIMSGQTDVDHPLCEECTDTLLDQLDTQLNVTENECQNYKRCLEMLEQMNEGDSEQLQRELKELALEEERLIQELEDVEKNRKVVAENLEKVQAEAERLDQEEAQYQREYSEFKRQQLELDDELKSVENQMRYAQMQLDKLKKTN
Assay: ITC; 200 μM Beclin1 injected (2 μl aliquots) into 200 μl of 20 μM Bcl2, 50 mM Tris pH 8.0, 150 mM NaCl, Auto-iTC200, without MA
Conditions: both partners purified

Kd: ~7.3 µM
B1: BH3 motif containing region of rat Bcl2 (residues 1-156), un-tagged version (domain or fragment, UniProt P49950 1-156, looked up)
chain: MAQAGRTGYDNREIVMKYIHYKLSQRGYEWDTGDEDSAPLRAAPTPGIFSFQPESNRTPAVHRDTAARTSPLRPLVANAGPALSPVPPVVHLTLRRAGDDFSRRYRRDFAEMSSQLHLTPFTARGRFATVVEELFRDGVNWGRIVAFFEFGGVMCV
notes: Bcl2, rat, BH3 motif containing region, residues 1-156; Cloned as a GST fusion in a modified pET32 vector with a 3C protease site
